Assay results from article PMC5797146 (Scientific Reports, 2018).
Changes are numbered by the printed parent chain. Names may count otherwise.

B1: A26.8 VHH Q101K, T103M (VHH)
VHH: QVKLEESGGGLVQAGGSLRLSCAASERTFSRYPVAWFRQAPGAEREFVAVISSTGTSTYYADSVKGRFTISRDNAKVTVYLQMNNLKREDTAVYFCAVNSKRMRLQDPNEYDYWGQGTQVTVSS
notes: source: E. coli TG1, periplasmic extract, purified (IMAC, SEC)
B2: A26.8 VHH Q101K, T103K (VHH)
VHH: B1 VHH with M103K
notes: as for B1

Target: T1, Clostridium difficile toxin A (Clostridioides difficile …, UniProt P16154)
T1 construct: also called TcdA
Assay: SPR
Details: both partners purified

Binder | Kd | koff | kon
B1 | 8 nM | 0.027 s⁻¹ | 3.3e+06 M⁻¹ s⁻¹
B2 | 8.2 nM | 0.04 s⁻¹ | 5e+06 M⁻¹ s⁻¹
